Holding throughout (conditions): both partners purified
The target of assay [1] is T1, PfCSP C‐linker peptide (aa 273–310) (Plasmodium falciparum NF54, UniProt P19597).
T1 construct: Plasmodium falciparum NF54 circumsporozoite protein, C-linker, aa 273–310; source: synthetic peptide (PSL Peptide Specialty Laboratories GmbH)
T1 chain: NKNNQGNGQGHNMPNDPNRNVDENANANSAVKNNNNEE
Nature of the assay: ELISA; antigen coated on 384-well plates overnight at 4°C in PBS (full-length PfCSP 0.4 μg/ml, C-CSP 1 μg/ml, peptides 2 μg/ml); mAb from 4 μg/ml in PBS, RT 1.5 h; detected with anti-human IgG-HRP; AUC.

The target in assay [2] is T2, PfCSP C‐terminal domain (C‐CSP), NF54 (Plasmodium falciparum NF54, UniProt P19597).
T2 construct: Plasmodium falciparum NF54 circumsporozoite protein, C-terminal domain made of the C-linker (aa 273–310) and the α-TSR domain (aa 311–384); also called C‐CSP peptide; PfCSP C terminus; source: E. coli, by the EMBL protein expression and purification core facility
The assay is described as above.

The target in assay [3] is T3, full‐length PfCSP (FL‐CSP), NF54 (Plasmodium falciparum NF54).
T3 construct: Plasmodium falciparum NF54 circumsporozoite protein, called full-length; source: FL-CSP expressed in E. coli by the EMBL core facility; a biotinylated NF54 FL-CSP was expressed in HEK293F and purified (HisTrap HP, SEC)
Described as above.

For assay [4], the target named is T4, PfCSP C‐terminal linker peptide P2 (PfCSP 281–294) (Plasmodium falciparum NF54).
T4 construct: Plasmodium falciparum NF54 circumsporozoite protein (PfCSP), aa 281–294 of the C-linker; One of 14 overlapping peptides (P1-P14); also called C‐CSP peptide; source: synthetic peptide (PSL Peptide Specialty Laboratories GmbH)
T4 chain: QGHNMPNDPNRNVD
The assay is described as above.

Assay [5] addresses T4, PfCSP C‐terminal linker peptide P2 …. Nature of the assay: crystal structure; 3764 Fab and PfCSP 281-294 peptide mixed 1:3; 19% isopropanol, 19% PEG 4000, 5% glycerol, 0.095 M sodium citrate pH 5.6; 2.36 Å.

B1: mAb 3764 (recombinant human IgG1) (antibody, V domains shown)
VH: QVQLVESGGGVVQPGRSLRLSCAASGFTFSSYGMHWVRQAPGKGLEWVAVIWYDGSYKSYIESVKGRFTISRDNSKNTLYLQMNSLRVEDTAVYYCALGYSSGQGTLDNWGQGTLVTVSS
VL: DVVMTQSPLSLAVTLGQPASISCRSTQSLVYSDGNTYLNWFQQRPGQSPRRLIYKVSNRDSGVPDRFSGSESGTDFTLKISRVEAEDVGLYYCMQGTHWPWTFGQGTKVEIK
notes: heavy chain variable region of mAb 3764 (IGHV3-33); human IgG1 constant region from the IGHG1 expression vector; kappa chain variable region of mAb 3764; human Ig kappa constant region from the IGKC expression vector; IgG1; Somatic mutations H.N56Y and H.Y58S against germline are already part of the antibody; also called C‐linker specific mAb 3764; source: HEK293T, co-transfected, purified from …
B1: the binding result in assay [1], in assay [2], in assay [3] and in assay [4] was “binds” throughout.

B2: 3764 Fab (Fab, V domains shown)
VH: B1 VH
VL: B1 VL
notes: mAb 3764 heavy chain variable region upstream of human IgG1-CH1; mAb 3764 kappa chain variable region upstream of human IgK constant domain; also called mAb 3764 Fab; source: HEK293F, transiently co-transfected, purified (Kappa-select, MonoS cation exchange, Superdex 200 SEC)
On to B2, for which the binding result in assay [5] is “binds”.
